Here are results for one molecule from patent CN112961250A (CHANGCHUN GENESCIENCE PHARMACEUTICALS CO LTD, dated 2021).

This assay has as its target T1, 人VEGFC-His(金赛自构) (human).
T1 construct: also called hVEGFC-His; hVEGFC
T1 chain: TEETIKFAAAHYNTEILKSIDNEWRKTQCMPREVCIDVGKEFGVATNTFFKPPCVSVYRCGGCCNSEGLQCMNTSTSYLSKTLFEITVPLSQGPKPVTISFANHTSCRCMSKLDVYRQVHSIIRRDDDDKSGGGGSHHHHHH
Kind of assay: ELISA, human VEGFC-His coated at 1 μg/ml.

B1: 抗人VEGFC单克隆抗体P01-H1L4 (antibody, V domains shown)
VH: EVRLLESGGGLVQPGGSLRLSCAASGFTFRRSTMAWVRQAPGKGLEWVSSISAQGANTYYADNVKGRFTISRDNSKNTLYLQMNSLRAEDTAVYYCARDLPAGGFGPWGRGTMVTVSS
VL: SYELTQPPSSSGTPGQRVTISCRGSSSNIGRYSVSWYQQVPGTAPKLLIYTDNQRPSGVPDRFSASKSGTSASLTITGLQSEDEADYYCAAWDDSQYGPWVFGGGTKLTVL
notes: also called 阳性对照抗体P01-H1L4; 对照抗体P01-H1L4
With B1, the binding result is listed as “binds”.
